tested on: Escherichia coli TOP10; test: shrunken log2 fold change of peptide-encoding DNA abundance (4.5 h post-induction vs induction); higher = less antimicrobial activity (less host growth inhibition); details: time post-induction: 4.5 h; library: site-saturation at positions 5, 18, 19, 20
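Note: peptides expressed intracellularly from a pBAD plasmid library in pooled LB shake-flask culture, induced with 0.3% L-arabinose, DNA abundance read by NGS, three biological replicates, DESeq2 with apeglm shrinkage.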

RRIRHRPPRLPRPRPRPCTSPRP and RRIRRRPPRLPRPRPRPLVLPRP are within 0.2 log units of each other in “shrunken log2 fold change” value: -0.0185 for the first, 0.0551 for the second.

RRIRYRPPRLPRPRPRPDPNPRP and RRIRWRPPRLPRPRPRPNMYPRP are within 0.2 log units of each other in “shrunken log2 fold change” value: -0.57 for the first, -0.436 for the second.

First: RRIRRRPPRLPRPRPRPCTFPRP
Second: RRIRRRPPRLPRPRPRPEMTPRP
The “shrunken log2 fold change” value of the first is lower: -0.262 for the first, 0.638 for the second.

Compared with RRIRRRPPRLPRPRPRPWCRPRP, RRIRVRPPRLPRPRPRPALDPRP is lower in “shrunken log2 fold change” value: 1.02 for the first, 0.357 for the second.

Going from RRIRRRPPRLPRPRPRPNTNPRP to RRIRWRPPRLPRPRPRPYCNPRP, the “shrunken log2 fold change” value falls from -0.22 to -0.455.

Compared with RRIRDRPPRLPRPRPRPHGYPRP, RRIRRRPPRLPRPRPRPRSQPRP is higher in “shrunken log2 fold change” value: 0.0237 for the first, 0.533 for the second.

RRIRARPPRLPRPRPRPKYTPRP and RRIRYRPPRLPRPRPRPRAVPRP are within 0.2 log units of each other in “shrunken log2 fold change” value: -0.013 for the first, 0.0585 for the second.

RRIRHRPPRLPRPRPRPILIPRP and RRIRTRPPRLPRPRPRPSCAPRP are within 0.2 log units of each other in “shrunken log2 fold change” value: -0.0862 for the first, -0.127 for the second.

RRIRNRPPRLPRPRPRPDSQPRP and RRIRERPPRLPRPRPRPQREPRP are within 0.2 log units of each other in “shrunken log2 fold change” value: -0.0699 for the first, 0.0255 for the second.

Compared with RRIRKRPPRLPRPRPRPKMGPRP, RRIRWRPPRLPRPRPRPFRKPRP is lower in “shrunken log2 fold change” value: 0.0837 for the first, -0.351 for the second.

Going from RRIRHRPPRLPRPRPRPCMGPRP to RRIRKRPPRLPRPRPRPKCCPRP, the “shrunken log2 fold change” value rises from -0.194 to 0.0349.

Going from RRIRWRPPRLPRPRPRPVAWPRP to RRIRQRPPRLPRPRPRPTAKPRP, the “shrunken log2 fold change” value falls from 0.489 to 0.151.

RRIRIRPPRLPRPRPRPRYMPRP and RRIRARPPRLPRPRPRPNRSPRP are within 0.2 log units of each other in “shrunken log2 fold change” value: -0.114 for the first, -0.229 for the second.

RRIRERPPRLPRPRPRPIMVPRP and RRIRNRPPRLPRPRPRPNPVPRP are within 0.2 log units of each other in “shrunken log2 fold change” value: -0.023 for the first, -0.139 for the second.

RRIRMRPPRLPRPRPRPMMNPRP and RRIRRRPPRLPRPRPRPQPWPRP are within 0.2 log units of each other in “shrunken log2 fold change” value: -0.0818 for the first, 0.067 for the second.

RRIRFRPPRLPRPRPRPEQRPRP and RRIRYRPPRLPRPRPRPCGDPRP are within 0.2 log units of each other in “shrunken log2 fold change” value: -0.0295 for the first, -0.0424 for the second.

First: RRIRCRPPRLPRPRPRPMGDPRP
Second: RRIRARPPRLPRPRPRPVRVPRP
The “shrunken log2 fold change” value of the first is lower: -0.0113 for the first, 0.781 for the second.

First: RRIRCRPPRLPRPRPRPVYIPRP
Second: RRIRIRPPRLPRPRPRPKRAPRP
The “shrunken log2 fold change” value of the first is lower: -0.756 for the first, 0.283 for the second.

Compared with RRIRIRPPRLPRPRPRPNRHPRP, RRIRPRPPRLPRPRPRPPLWPRP is higher in “shrunken log2 fold change” value: -0.0899 for the first, 1.75 for the second.

RRIRDRPPRLPRPRPRPICMPRP and RRIRERPPRLPRPRPRPLGTPRP are within 0.2 log units of each other in “shrunken log2 fold change” value: -0.00256 for the first, -0.0681 for the second.

RRIRERPPRLPRPRPRPRMGPRP and RRIRPRPPRLPRPRPRPMQCPRP are within 0.2 log units of each other in “shrunken log2 fold change” value: -0.173 for the first, 0.00596 for the second.

RRIRFRPPRLPRPRPRPESGPRP and RRIRFRPPRLPRPRPRPWVCPRP are within 0.2 log units of each other in “shrunken log2 fold change” value: 0.0504 for the first, 0.029 for the second.

RRIRKRPPRLPRPRPRPYQCPRP and RRIRVRPPRLPRPRPRPKIRPRP are within 0.2 log units of each other in “shrunken log2 fold change” value: -0.0062 for the first, 0.161 for the second.

RRIRMRPPRLPRPRPRPYHLPRP and RRIRFRPPRLPRPRPRPCPRPRP are within 0.2 log units of each other in “shrunken log2 fold change” value: 0.00229 for the first, 0.0155 for the second.

RRIRLRPPRLPRPRPRPEEPPRP and RRIRKRPPRLPRPRPRPKRLPRP are within 0.2 log units of each other in “shrunken log2 fold change” value: 0.0426 for the first, 0.0257 for the second.

First: RRIRRRPPRLPRPRPRPCMNPRP
Second: RRIRIRPPRLPRPRPRPVTRPRP
The “shrunken log2 fold change” value of the first is lower: -0.154 for the first, 0.0796 for the second.

Compared with RRIRKRPPRLPRPRPRPRCVPRP, RRIRHRPPRLPRPRPRPKLLPRP is lower in “shrunken log2 fold change” value: 0.276 for the first, -0.0097 for the second.

First: RRIRLRPPRLPRPRPRPVGSPRP
Second: RRIRQRPPRLPRPRPRPNVAPRP
The “shrunken log2 fold change” value of the first is lower: -0.165 for the first, 0.236 for the second.

First: RRIRIRPPRLPRPRPRPGQYPRP
Second: RRIRIRPPRLPRPRPRPKKWPRP
The “shrunken log2 fold change” value of the first is lower: -0.221 for the first, -0.00764 for the second.

Going from RRIRPRPPRLPRPRPRPRSYPRP to RRIRLRPPRLPRPRPRPQVQPRP, the “shrunken log2 fold change” value falls from 0.199 to -0.0263.

Going from RRIRARPPRLPRPRPRPQILPRP to RRIRVRPPRLPRPRPRPNSKPRP, the “shrunken log2 fold change” value falls from -0.0605 to -0.506.

RRIRCRPPRLPRPRPRPAAIPRP and RRIRGRPPRLPRPRPRPFTSPRP are within 0.2 log units of each other in “shrunken log2 fold change” value: 0.0247 for the first, -0.0475 for the second.

RRIRMRPPRLPRPRPRPFTEPRP and RRIRPRPPRLPRPRPRPKEFPRP are within 0.2 log units of each other in “shrunken log2 fold change” value: 0.0426 for the first, -0.0187 for the second.

First: RRIRFRPPRLPRPRPRPCGQPRP
Second: RRIRARPPRLPRPRPRPWFVPRP
The “shrunken log2 fold change” value of the first is higher: 0.151 for the first, -0.0746 for the second.

RRIRRRPPRLPRPRPRPGFWPRP and RRIRARPPRLPRPRPRPNKRPRP are within 0.2 log units of each other in “shrunken log2 fold change” value: 0.333 for the first, 0.214 for the second.

Compared with RRIRSRPPRLPRPRPRPNWNPRP, RRIRRRPPRLPRPRPRPSVEPRP is higher in “shrunken log2 fold change” value: -0.453 for the first, 0.0256 for the second.

RRIRDRPPRLPRPRPRPIFCPRP and RRIRNRPPRLPRPRPRPCNNPRP are within 0.2 log units of each other in “shrunken log2 fold change” value: -0.0484 for the first, -0.0122 for the second.

Compared with RRIRMRPPRLPRPRPRPAMSPRP, RRIRVRPPRLPRPRPRPWLPPRP is lower in “shrunken log2 fold change” value: 0.177 for the first, -0.59 for the second.

RRIRFRPPRLPRPRPRPCHCPRP and RRIRDRPPRLPRPRPRPYGTPRP are within 0.2 log units of each other in “shrunken log2 fold change” value: -0.0994 for the first, -0.234 for the second.

First: RRIRDRPPRLPRPRPRPNRFPRP
Second: RRIRFRPPRLPRPRPRPYTKPRP
The “shrunken log2 fold change” value of the first is higher: -0.00648 for the first, -0.573 for the second.

Going from RRIRPRPPRLPRPRPRPQREPRP to RRIRNRPPRLPRPRPRPDKYPRP, the “shrunken log2 fold change” value falls from -0.063 to -0.665.

Going from RRIRVRPPRLPRPRPRPPMYPRP to RRIRGRPPRLPRPRPRPGLVPRP, the “shrunken log2 fold change” value rises from -0.366 to 0.848.

RRIRGRPPRLPRPRPRPNLLPRP and RRIRFRPPRLPRPRPRPREMPRP are within 0.2 log units of each other in “shrunken log2 fold change” value: 0.485 for the first, 0.286 for the second.

First: RRIRKRPPRLPRPRPRPAVMPRP
Second: RRIRVRPPRLPRPRPRPRFYPRP
The “shrunken log2 fold change” value of the first is higher: 0.881 for the first, 0.112 for the second.

Compared with RRIRHRPPRLPRPRPRPFRFPRP, RRIRKRPPRLPRPRPRPMASPRP is higher in “shrunken log2 fold change” value: -0.132 for the first, 0.55 for the second.

RRIRFRPPRLPRPRPRPSKTPRP and RRIRWRPPRLPRPRPRPITVPRP are within 0.2 log units of each other in “shrunken log2 fold change” value: 0.0514 for the first, -0.0559 for the second.

Compared with RRIRQRPPRLPRPRPRPENFPRP, RRIRHRPPRLPRPRPRPFKHPRP is lower in “shrunken log2 fold change” value: -0.00776 for the first, -0.454 for the second.

First: RRIRTRPPRLPRPRPRPNNYPRP
Second: RRIRNRPPRLPRPRPRPGQAPRP
The “shrunken log2 fold change” value of the first is lower: -0.754 for the first, 0.0345 for the second.

First: RRIRIRPPRLPRPRPRPMVGPRP
Second: RRIRQRPPRLPRPRPRPMNDPRP
The “shrunken log2 fold change” value of the first is higher: 0.105 for the first, -0.227 for the second.

Compared with RRIRHRPPRLPRPRPRPCVRPRP, RRIRQRPPRLPRPRPRPLQLPRP is higher in “shrunken log2 fold change” value: -0.504 for the first, -0.126 for the second.

RRIRTRPPRLPRPRPRPVGMPRP and RRIRYRPPRLPRPRPRPGIVPRP are within 0.2 log units of each other in “shrunken log2 fold change” value: -0.388 for the first, -0.384 for the second.

RRIRWRPPRLPRPRPRPPSRPRP and RRIRKRPPRLPRPRPRPTVMPRP are within 0.2 log units of each other in “shrunken log2 fold change” value: 0.314 for the first, 0.247 for the second.

Going from RRIRKRPPRLPRPRPRPRALPRP to RRIRERPPRLPRPRPRPPHNPRP, the “shrunken log2 fold change” value rises from 0.396 to 0.637.

Compared with RRIRLRPPRLPRPRPRPRGEPRP, RRIRKRPPRLPRPRPRPVYAPRP is lower in “shrunken log2 fold change” value: 0.207 for the first, -0.0576 for the second.

With RRIRGRPPRLPRPRPRPMTAPRP the “shrunken log2 fold change” value was 0.692.
